This data set has as its target GST-poly (Glu,Tyr) fused protein.

Chain of GST-poly (Glu,Tyr) fused protein (chain, as listed by the source): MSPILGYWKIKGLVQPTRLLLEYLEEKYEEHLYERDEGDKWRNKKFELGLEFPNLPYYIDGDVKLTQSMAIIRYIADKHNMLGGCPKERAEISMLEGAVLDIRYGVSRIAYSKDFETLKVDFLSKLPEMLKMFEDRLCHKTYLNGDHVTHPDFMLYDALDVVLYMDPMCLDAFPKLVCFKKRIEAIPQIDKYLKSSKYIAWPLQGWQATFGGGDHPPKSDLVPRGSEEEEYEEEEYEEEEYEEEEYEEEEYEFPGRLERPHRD

B1: IGF-1 Receptor Kinase (intracellular domain, Cell Signaling Technology) (protein)
chain: RKRNNSRLGNGVLYASVNPEYFSAADVYVPDEWEVAREKITMSRELGQGSFGMVYEGVAKGVVKDEPETRVAIKTVNEAASMRERIEFLNEASVMKEFNCHHVVRLLGVVSQGQPTLVIMELMTRGDLKSYLRSLRPEMENNPVLAPPSLSKMIQMAGEIADGMAYLNANKFVHRDLAARNCMVAEDFTVKIGDFGMTRDIYETDYYRKGGKGLLPVRWMSPESLKDGVFTTYSDVWSFGVVLWEIATLAEQPYQGLSNEQVLRFVMEGGLLDKPDNCPDMLFELMRMCWQYNPKMRPSFLEIISSIKEEMEPGFREVSFYYSEENKLPEPEELDLEPENMESVPLDPSASSSSLPLPDRHSGHKAENGPGPGVLVLRASFDERQPYAHMNGGRKNERALPLPQSSTC
For the protein B1, the “band of phosphorylated GST-poly (Glu,Tyr) fused protein in Western blotting with anti-phosphotyrosine antibody” value (“band of phosphorylated GST-poly” below) was “In “+” of “i” to “vii”, a single band was seen at positions where a phosphorylated GST-poly (Glu,Tyr) fused protein appears”.

B2: ErbB4 Kinase (intracellular domain, Cell Signaling Technology) (protein)
chain: RRKSIKKKRALRRFLETELVEPLTPSGTAPNQAQLRILKETELKRVKVLGSGAFGTVYKGIWVPEGETVKIPVAIKILNETTGPKANVEFMDEALIMASMDHPHLVRLLGVCLSPTIQLVTQLMPHGCLLEYVHEHKDNIGSQLLLNWCVQIAKGMMYLEERRLVHRDLAARNVLVKSPNHVKITDFGLARLLEGDEKEYNADGGKMPIKWMALECIHYRKFTHQSDVWSYGVTIWELMTFGGKPYDGIPTREIPDLLEKGERLPQPPICTIDVYMVMVKCWMIDADSRPKFKELAAEFSRMARDPQRYLVIQGDDRMKLPSPNDSKFFQNLLDEEDLEDMMDAEEYLVPQAFNIPPPIYTSRARIDSNRSEIGHSPPPAYTPMSGNQFVYRDGGFAAEQGVSVPYRAPTSTIPEAPVAQGATAEIFDDSCCNGTLRKPVAPHVQEDSSTQRYSADPTVFAPERSPRGELDEEGYMTPMRDKPKQEYLNPVEENPFVSRRKNGDLQALDNPEYHNASNGPPKAEDEYVNEPLYLNTFANTLGKAEYLKNNILSMPEKAKKAFDNPDYWNHSLPPRSTLQHPDYLQEYSTKYFYKQNGRIRPIVAENPEYLSEFSLKPGTVLPPPPYRHRNTVV
Consider B2, for which the “band of phosphorylated GST-poly” value was “In “+” of “i” to “vii”, a single band was seen at positions where a phosphorylated GST-poly (Glu,Tyr) fused protein appears”.

B3: VEGF Receptor 1 Kinase (intracellular domain, Cell Signaling Technology) (protein)
chain: RKMKRSSSEIKTDYLSIIMDPDEVPLDEQCERLPYDASKWEFARERLKLGKSLGRGAFGKVVQASAFGIKKSPTCRTVAVKMLKEGATASEYKALMTELKILTHIGHHLNVVNLLGACTKQGGPLMVIVEYCKYGNLSNYLKSKRDLFFLNKDAALHMEPKKEKMEPGLEQGKKPRLDSVTSSESFASSGFQEDKSLSDVEEEEDSDGFYKEPITMEDLISYSFQVARGMEFLSSRKCIHRDLAARNILLSENNVVKICDFGLARDIYKNPDYVRKGDTRLPLKWMAPESIFDKIYSTKSDVWSYGVLLWEIFSLGGSPYPGVQMDEDFCSRLREGMRMRAPEYSTPEIYQIMLDCWHRDPKERPRFAELVEKLGDLLQANVQQDGKDYIPINAILTGNSGFTYSTPAFSEDFFKESISAPKFNSGSSDDVRYVNAFKFMSLERIKTFEELLPNATSMFDDYQGDSSTLLASPMLKRFTWTDSKPKASLKIDLRVTSKSKESGLSDVSRPSFCHSSCGHVSEGKRRFTYDHAELERKIACCSPPPDYNSVVLYSTPPI
Consider B3, for which the “band of phosphorylated GST-poly” value is on record as “In “+” of “i” to “vii”, a single band was seen at positions where a phosphorylated GST-poly (Glu,Tyr) fused protein appears”.

B4: PDGF Receptor β Kinase (intracellular domain, Cell Signaling Technology) (protein)
chain: RYEIRWKVIESVSSDGHEYIYVDPMQLPYDSTWELPRDQLVLGRTLGSGAFGQVVEATAHGLSHSQATMKVAVKMLKSTARSSEKQALMSELKIMSHLGPHLNVVNLLGACTKGGPIYIITEYCRYGDLVDYLHRNKHTFLQHHSDKRRPPSAELYSNALPVGLPLPSHVSLTGESDGGYMDMSKDESVDYVPMLDMKGDVKYADIESSNYMAPYDNYVPSAPERTCRATLINESPVLSYMDLVGFSYQVANGMEFLASKNCVHRDLAARNVLICEGKLVKICDFGLARDIMRDSNYISKGSTFLPLKWMAPESIFNSLYTTLSDVWSFGILLWEIFTLGGTPYPELPMNEQFYNAIKRGYRMAQPAHASDEIYEIMQKCWEEKFEIRPPFSQLVLLLERLLGEGYKKKYQQVDEEFLRSDHPAILRSQARLPGFHGLRSPLDTSSVLYTAVQPNEGDNDYIIPLPDPKPEVADEGPLEGSPSLASSTLNEVNTSSTISCDSPLEPQDEPEPEPQLELQVEPEPELEQLPDSGCPAPRAEAEDSFL
Regarding B4, the “band of phosphorylated GST-poly” value is listed as “In “+” of “i” to “vii”, a single band was seen at positions where a phosphorylated GST-poly (Glu,Tyr) fused protein appears”.

For the origin of these results see patent US20070238141.
